Source: patent US20210388082A1 (NEWBIO THERAPEUTICS, published 2021)
Residue numbers refer to the chain shown, from its start.

Experiments:
[1] = target: T1, recombinant human CD79b extracellular domain protein (human, UniProt P40259 29-159); test: SPR (Biacore T200), antibody on CM5 chip, CD79b ECD as analyte, 25 C
T1 construct: Bought protein; also called CD79b ECD; human CD79b-ECD
T1 sequence: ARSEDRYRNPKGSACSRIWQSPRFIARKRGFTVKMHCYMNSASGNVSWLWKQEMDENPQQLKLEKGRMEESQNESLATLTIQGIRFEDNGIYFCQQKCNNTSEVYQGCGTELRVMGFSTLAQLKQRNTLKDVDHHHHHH
Experimental: The assay was performed on a Biacore T200 (GE) machine, and the antibody to be tested was diluted to 10 ug/ml with HBS-EP (GE, BR100826) buffer according to the instruction of Amine-Coupling Kit (GE, BR-1000-50). The antibody to be tested was immobilized on a CM5 chip (GE, BR-1006-68) at a fixing time of 300 sec and a flow rate of 10 ul/min. Different concentrations (0.25 nm, 0.5 nm, 1 nm, 2 nm, 4 nm, 8 (×2) nm, 16 nm) of the recombinant CD79b extracellular domain protein diluted with HBS buffer gradient was subjected to capture reaction by Kinetics program, with the binding time of the antigen-antibody set to 300 seconds, dissociation time set to 900 seconds, flow rate of the antigenic protein to 30 ul/min. The dissociation curves were fitted to calculate the KD values of the different antibodies. The above experiments were all carried out at 25° C.
The affinity of the antibody after humanization was tested by the method described in Section 4 of the “Materials and Methods” section.

[2] = target: T1, recombinant human CD79b extracellular …; test: indirect ELISA, plate coated with CD79b antigen
Experimental: An ELISA anti-antibody was added to bind with the antibody or ADC antibody bound to the solid phase antigen, and unbound anti-antibody was removed by washing. Substrate solution was added, and then the optical density (OD) value at 450 nm/630 nm was read with a microplate reader T, based on which a curve was plotted, and the EC₅₀ was calculated.

[3] = target: T1, recombinant human CD79b extracellular …; test: ELISA, plate coated with human CD79b-ECD
Experimental: (§1) The experimental procedure was as follows: 96-well plates (Corning, CAT #9018) were coated with 100 μL/well of antigen (human CD79b-ECD, novoprotein, CA29) at 1 μg/mL in PBS (10 mM phosphate, 138 mM NaCl, pH 7.2) at 4° C. overnight, and then blocked with 250 ul/well of blocking solution (PBS+1% BSA (Sangon, CAT #A0332)) for one to three hours at 25° C. Plates were washed 3 times with a washing solution (PBS+0.05% Tween-20 (Sangon, CAT #TB0560)), and then incubated with 100 μL of anti-CD79b antibody in serial dilutions in blocking solution in duplicate wells at 25° C. for 2 h. Plates were washed 3 times with washing solution and then incubated with 100 μL of 1:10,000 the secondary antibody (anti-mouse IgG (Fc)-HRP, Sigma, CAT #A00168 or anti-human IgG F(ab′)2-HRP, Sigma, CAT #A0293) at 25° C. for 1 h. Plates were washed 3 times with washing solution, and then 100 μL of TMB (Sangon, CAT #TB0954) was added to each well and incubated at 25° C. until color developed (approximately 15 min). Reactions were stopped by addition of 100 μl/well stop solution (1N H2SO4). OD450/630 nm was read on plate reader in 10 minutes.
The in vitro binding activity of the anti-CD79b humanized antibody to the extracellular domain of human CD79b was examined by ELISA as described in Section 1 of the Materials and Methods section.

[4] = target: T2, CD79b on the surface of human lymphoma cell lines (human, UniProt P40259 29-229); test: cell-based or functional assay
T2 sequence (looked up): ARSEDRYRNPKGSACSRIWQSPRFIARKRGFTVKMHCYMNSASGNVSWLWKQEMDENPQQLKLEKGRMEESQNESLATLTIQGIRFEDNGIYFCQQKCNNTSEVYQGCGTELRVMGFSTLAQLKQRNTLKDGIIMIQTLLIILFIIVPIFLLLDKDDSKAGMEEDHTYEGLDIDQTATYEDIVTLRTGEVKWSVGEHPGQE

[5] = target: T2, CD79b on the surface of human lymphoma …; test: cell-based or functional assay; remark: listed apart in the source
[6] = target: T1, recombinant human CD79b extracellular …; test: ELISA, plate coated with human CD79b-ECD; remark: listed apart in the source
Experimental: as §1

[7] = target: T2, CD79b on the surface of human lymphoma …; test: cell-based or functional assay; remark: listed apart in the source

B1: Humanized antibody AS11259 (antibody, human IgG1, kappa)
heavy: not shown
light: DVVMTQSPLSLPVTLGQPASISCRSSQNIVHSDGNTYLEWYQQRPGQSPRLLIYKVSFRLSGVPDRFSGSGSGTDFTLKISRVEAEDVGVYYCFQGSHVPWTFGGGTKVEIKRTVAAPSVFIFPPSDEQLKSGTASVVCLLNNFYPREAKVQWKVDNALQSGNSQESVTEQDSKDSTYSLSSTLTLSKADYEKHKVYACEVTHQGLSSPVTKSFNRGEC
notes: Humanized IgG1 / kappa; also called naked antibody AS11259
**Q.** For B1, which Kd [1] is on record?
**A.** Its Kd is 21.6 pM.

**Q.** And the koff [1]?
**A.** The koff was 3.63e-05 s⁻¹.

**Q.** And the kon [1]?
**A.** Its kon is 1.68e+06 M⁻¹ s⁻¹.

**Q.** And the EC50 [2]?
**A.** The EC50 was 0.0178 µg/mL.

**Q.** What about the EC50 [3] of the same binder?
**A.** Its EC50 is 0.0583 µg/mL.

B2: Humanized antibody AS11252 (antibody, human IgG1, kappa)
heavy: not shown
light: B1 light
notes: Humanized IgG1 / kappa
**Q.** Which Kd [1] does the source give for B2 here?
**A.** Its Kd is 28.5 pM.

**Q.** What about the koff [1] of the same binder?
**A.** The koff was 4.22e-05 s⁻¹.

**Q.** And the kon [1]?
**A.** Its kon is 1.48e+06 M⁻¹ s⁻¹.

**Q.** What about the EC50 [3] of the same binder?
**A.** Its EC50 is 0.0499 µg/mL.

B3: Humanized antibody AS11164 (antibody, human IgG1, kappa, V domains shown)
VH: QVQLVQSGAEVKKPGSSVKVSCKTSGNTFTSYGINWVRQAPGQGLEWMGEIFPRSGNIYYNEKFKGKVTITADKSTSTAYMELSSLRSEDTAVYYCAKGGTGDFDYWGQGTLVTVSS
VL: DVLMTQSPLSLPVTLGQPASISCRSSQNIVHSDGNTYLEWYQQRPGQSPKLLIYKVSFRLSGVPDRFSGSGSGTDFTLKISRVEAEDVGVYYCFQGSHVPWTFGGGTKVEIKR
notes: Humanized IgG1 / kappa
**Q.** Which Kd [1] does the source give for B3 here?
**A.** The Kd was 12.8 pM.

**Q.** What about the koff [1] of the same binder?
**A.** Its koff is 2.44e-05 s⁻¹.

**Q.** And the kon [1]?
**A.** The kon was 1.91e+06 M⁻¹ s⁻¹.

**Q.** What about the EC50 [3] of the same binder?
**A.** The EC50 was 0.064 µg/mL.

B4: Humanized antibody AS11161 (antibody, human IgG1, kappa, V domains shown)
VH: B3 VH
VL: B3 VL with L3V, K50R
notes: Humanized IgG1 / kappa
**Q.** With B4 as the binder, how does the Kd [1] read?
**A.** The Kd was 14 pM.

**Q.** What about the koff [1] of the same binder?
**A.** Its koff is 2.84e-05 s⁻¹.

**Q.** And the kon [1]?
**A.** The kon was 2.02e+06 M⁻¹ s⁻¹.

**Q.** And the EC50 [3]?
**A.** Its EC50 is 0.0431 µg/mL.

B5: Humanized antibody AS11254 (antibody, human IgG1, kappa, V domains shown)
VH: B3 VH with S16A, R38K, K67R
VL: B3 VL with L3V, K50R
notes: Humanized IgG1 / kappa
**Q.** How did the Kd [1] turn out when B5 was run?
**A.** The Kd was 18.7 pM.

**Q.** And the koff [1]?
**A.** Its koff is 2.87e-05 s⁻¹.

**Q.** What about the kon [1] of the same binder?
**A.** Its kon is 1.53e+06 M⁻¹ s⁻¹.

**Q.** What about the EC50 [3] of the same binder?
**A.** The EC50 was 0.0501 µg/mL.

B6: recombinant chimeric antibody 104E1 conjugated to BMP-vcMMAE (other)
VH: QVQLQQSGSELARPGASVKLSCKTSGNTFTSYGINWVKQRTGQGLEWIGEIFPRSGNIYYNEKFKGKATLTADKSSSTAYMELRSLTSEDSAVYFCAKGGTGDFDYWGQGTTLTVSS
VL: DVLMTQTPLSLPVSLGDQASISCRSSQNIVHSDGNTYLEWYLQKPGQSPKLLIYKVSFRLSGVPDRFSGSGSGTDFTLKIRRVEAEDLGTYYCFQGSHVPWTFGGGTKLEIK
modifications: antibody conjugated to BMP-vcMMAE (linker-drug 1); positions not given
**Q.** Which “Inhibitory effect on the lymphoma cell proliferation IC50, BJAB” value [4] does the source give for B6 here?
**A.** Its value is 0.00881 µg/mL.

**Q.** What about the “Inhibitory effect on the lymphoma cell proliferation IC50, DoHH2” value [4] of the same binder?
**A.** Its value is 0.00426 µg/mL.

**Q.** What about the “Inhibitory effect on the lymphoma cell proliferation IC50, Granta-519” value [4] of the same binder?
**A.** The value was 0.0296 µg/mL.

**Q.** What about the “Inhibitory effect on the lymphoma cell proliferation IC50, Ramos” value [4] of the same binder?
**A.** Its value is 0.00442 µg/mL.

**Q.** And the “Inhibitory effect on the lymphoma cell proliferation IC50, SU_DHL-4” value [4]?
**A.** The value was 0.00946 µg/mL.

**Q.** What about the “Inhibitory effect on the lymphoma cell proliferation IC50, U-698-M” value [4] of the same binder?
**A.** The value was 0.0159 µg/mL.

**Q.** What about the “Inhibitory effect on the lymphoma cell proliferation IC50, WSU-DLCL2” value [4] of the same binder?
**A.** The value was 0.0168 µg/mL.

**Q.** And the “Inhibitory activity on lymphoma cell proliferation IC50, BJAB” value [5]?
**A.** Its value is 0.0104 µg/mL.

**Q.** What about the “Inhibitory activity on lymphoma cell proliferation IC50, DoHH2” value [5] of the same binder?
**A.** The value was 0.00575 µg/mL.

**Q.** What about the “Inhibitory activity on lymphoma cell proliferation IC50, Granta-519” value [5] of the same binder?
**A.** The value was 0.0208 µg/mL.

**Q.** What about the “Inhibitory activity on lymphoma cell proliferation IC50, Ramos” value [5] of the same binder?
**A.** The value was 0.00602 µg/mL.

**Q.** What about the “Inhibitory activity on lymphoma cell proliferation IC50, SU-DHL-4” value [5] of the same binder?
**A.** Its value is 0.0119 µg/mL.

**Q.** What about the “Inhibitory activity on lymphoma cell proliferation IC50, U-698-M” value [5] of the same binder?
**A.** The value was 0.00952 µg/mL.

**Q.** And the “Inhibitory activity on lymphoma cell proliferation IC50, WSU-DLCL2” value [5]?
**A.** Its value is 0.0182 µg/mL.

B7: recombinant human-mouse chimeric antibody 104E1 (antibody, V domains shown)
VH: B6 VH
VL: B6 VL
notes: also called chimeric 104E1
**Q.** Which Kd [1] does the source give for B7 here?
**A.** The Kd was 34.1 pM.

**Q.** What about the koff [1] of the same binder?
**A.** The koff was 5.52e-05 s⁻¹.

**Q.** What about the kon [1] of the same binder?
**A.** The kon was 1.62e+06 M⁻¹ s⁻¹.

B8: murine anti-CD79b monoclonal antibody 104E1 (antibody, V domains shown)
VH: B6 VH
VL: B6 VL
notes: Mouse hybridoma antibody, tested as supernatant; also called murine antibody 104E1
**Q.** For B8, which EC50 [6] is on record?
**A.** The EC50 was 0.0149 µg/mL.

**Q.** And the “IC50 against BJAB (secondary ADC assay with HB58-ADC)” value [7]?
**A.** Its value is 0.0093 µg/mL.
